{"source": "the RNAGym collection of RNA variant scans (doi:10.7554/elife.90254)", "parents": {"B1": {"name": "LINE1-mini (parent)", "chain": "GGCAGAGCUCAACACAGCGUGGCAAAGUGGCUGUGGCUAGACUGCC"}}}
{"variants_of": "B1", "test": "self-cleavage, relative activity (ratio to wild type); higher = more cleavage; in vitro, sequencing; the parent is a self-cleaving ribozyme"}
{"variant": "GGCAGGGAUCAACACAGCGUGGCAAAGUGGCUGUGGCUAGACUGCC", "note": "[A6G C8A]", "self-cleavage": 0.15}
{"variant": "GGCAGAGCUCAACACCGAGUGGCAAAGUGGCUGUGGCUAGACUGCC", "note": "[A16C C18A]", "self-cleavage": 0.06}
{"variant": "GGCAGAGCUCAGCACAGCGUGGCAAAGUGGCUGUGGCUAGACUGCC", "note": "[A12G]", "self-cleavage": 0.04}
{"variant": "CGCAGAGCACAACACAGCGUGGCAAAGUGGCUGUGGCUAGACUGCC", "note": "[G1C U9A]", "self-cleavage": 0.02}
{"variant": "GGCAGAGCUCAACACAGCGUGGCAAUGUGGCUUUGGCUAGACUGCC", "note": "[A26U G33U]", "self-cleavage": 0.08}
{"variant": "GGCAGAGCUCAACACAGCGUGGCAAACUGGCUGUGGCUAGACUGCU", "note": "[G27C C46U]", "self-cleavage": 1.09}
{"variant": "GGCAGAGCUCAACACAGGGUGGCAAAUUGGCUGUGGCUAGACUGCC", "note": "[C18G G27U]", "self-cleavage": 0.61}
{"variant": "GGCAGAGCUCCACACAGCGUGGCAAAGUGGCUGCGGCUAGACUGCC", "note": "[A11C U34C]", "self-cleavage": 0.04}
{"variant": "GGCAGAGCCCAACACAGCGUGGCAAAGUGGCUGUGGCUAGACUCCC", "note": "[U9C G44C]", "self-cleavage": 0.02}
{"variant": "GGCAGAGCUCAACACAGCGUGGCAAAGAGGCUGUGGCUAGGCUGCC", "note": "[U28A A41G]", "self-cleavage": 0.3}
{"variant": "GGCAGAGCUCAACACAGCGUGGCAAGGUGGCUGUGGCUAGACUGUC", "note": "[A26G C45U]", "self-cleavage": 0.77}
{"variant": "GGCAGAGCUCAACACAGCGUGGCAAACUGGCUGGGGCUAGACUGCC", "note": "[G27C U34G]", "self-cleavage": 0.2}
{"variant": "GGCAGAGCUCAACACAGCUUGGCAAUGUGGCUGUGGCUAGACUGCC", "note": "[G19U A26U]", "self-cleavage": 0.56}
{"variant": "GGCAGAGCUCAACACCGCGUGGCACAGUGGCUGUGGCUAGACUGCC", "note": "[A16C A25C]", "self-cleavage": 0.04}
{"variant": "GGCAGAGCACAACACAGCGUCGCAAAGUGGCUGUGGCUAGACUGCC", "note": "[U9A G21C]", "self-cleavage": 0.06}
{"variant": "GGCAGAGCUCAACACAGCGUGGCGAAGUGGCUGUGGCUAGAGUGCC", "note": "[A24G C42G]", "self-cleavage": 0.06}
{"variant": "GGCAGUGCUCAACAGAGCGUGGCAAAGUGGCUGUGGCUAGACUGCC", "note": "[A6U C15G]", "self-cleavage": 0.07}
{"variant": "GGCAGUGCUCAACACAGCGUGGCAAAGUGGCUAUGGCUAGACUGCC", "note": "[A6U G33A]", "self-cleavage": 0.1}
{"variant": "GGCAGAGCUCAACACAGGGUGGCAAAGUGGCUGUGGCAAGACUGCC", "note": "[C18G U38A]", "self-cleavage": 0.38}
{"variant": "GGCAGAGCGCAACACAGCGUGGCAAAGUGGCUGUCGCUAGACUGCC", "note": "[U9G G35C]", "self-cleavage": 0.03}
{"variant": "GGCAGAUCUCAACACAGCGUGGCAAAGUGGCCGUGGCUAGACUGCC", "note": "[G7U U32C]", "self-cleavage": 0.22}
{"variant": "UGCAGAGCUCAACACAGCGUGGCAAAGGGGCUGUGGCUAGACUGCC", "note": "[G1U U28G]", "self-cleavage": 0.2}
{"variant": "GGCGGAGCUCAACACAGCGUGGCAAAGUGGCUAUGGCUAGACUGCC", "note": "[A4G G33A]", "self-cleavage": 0.12}
{"variant": "GGCAGAGCUCAACACAGGGUGGCAAAGUUGCUGUGGCUAGACUGCC", "note": "[C18G G29U]", "self-cleavage": 0.96}
{"variant": "GGUGGAGCUCAACACAGCGUGGCAAAGUGGCUGUGGCUAGACUGCC", "note": "[C3U A4G]", "self-cleavage": 0.31}
{"variant": "GGCAGAGCUCAACACAGCGUGGAAAAGUGGCUGUGGCUAGACUGGC", "note": "[C23A C45G]", "self-cleavage": 0.42}
{"variant": "GGCAGACGUCAACACAGCGUGGCAAAGUGGCUGUGGCUAGACUGCC", "note": "[G7C C8G]", "self-cleavage": 0.29}
{"variant": "GGCAGAGCUCAACACAGCGUGGCAAAGUGGCUGUGGCUAAACCGCC", "note": "[G40A U43C]", "self-cleavage": 0.08}
{"variant": "GGGAGAGCUCAACACAGCGUGGCAAAGGGGCUGUGGCUAGACUGCC", "note": "[C3G U28G]", "self-cleavage": 0.19}
{"variant": "GGCAGAUCUCAACACAGCGUGGCAAAGUGGCUGCGGCUAGACUGCC", "note": "[G7U U34C]", "self-cleavage": 0.09}
{"variant": "GGCAGAGCUCAACACAGCGUGGCAAAGUGGCCGGGGCUAGACUGCC", "note": "[U32C U34G]", "self-cleavage": 0.08}
{"variant": "GGCAGAGCUCAAGACUGCGUGGCAAAGUGGCUGUGGCUAGACUGCC", "note": "[C13G A16U]", "self-cleavage": 0.15}
{"variant": "GGCAGAGCUCAACACAGCGUGGCACAGUGGCUGUGGCUAGAGUGCC", "note": "[A25C C42G]", "self-cleavage": 0.04}
{"variant": "GGCAGAGCUCAACGCAGCGUGGCAAAGUGGCUCUGGCUAGACUGCC", "note": "[A14G G33C]", "self-cleavage": 0.03}
{"variant": "AGCAGAGCUCAACACAGAGUGGCAAAGUGGCUGUGGCUAGACUGCC", "note": "[G1A C18A]", "self-cleavage": 1.81}
{"variant": "GGCAGAGCUGAACACAGCGUGGCAAAGUGGUUGUGGCUAGACUGCC", "note": "[C10G C31U]", "self-cleavage": 0.05}
{"variant": "GGCAGAGCUCAACACAGCGUGGCAACGUGGCUGUGGCUAUACUGCC", "note": "[A26C G40U]", "self-cleavage": 0.09}
{"variant": "GGCAGAGCUCAACACAGCGUGGCAAAGGGGCCGUGGCUAGACUGCC", "note": "[U28G U32C]", "self-cleavage": 0.27}
{"variant": "GGCAGAGCUCAACACAGCGUGGCGAAGUGGCUGUGGCUAGACUGCC", "note": "[A24G]", "self-cleavage": 1.1}
{"variant": "GGCAGAGCUCAACACAGCGUGGCAAAGUGGCUUUCGCUAGACUGCC", "note": "[G33U G35C]", "self-cleavage": 0.06}
{"variant": "GUCAGAGCUCAACACAGCGUGGCAAAGUGGCUGUCGCUAGACUGCC", "note": "[G2U G35C]", "self-cleavage": 0.05}
{"variant": "GGCAGAGCUCAACACAGCGUGGCAAAGUGGCUUGGGCUAGACUGCC", "note": "[G33U U34G]", "self-cleavage": 0.05}
{"variant": "GGCAGAGCUCAACACAGCGUGGCAAAGUGGCUGUGGCCAGACCGCC", "note": "[U38C U43C]", "self-cleavage": 0.11}
{"variant": "GGCAGAGUUCAACACAGCGGGGCAAAGUGGCUGUGGCUAGACUGCC", "note": "[C8U U20G]", "self-cleavage": 0.12}
{"variant": "GGCAGAGCUCAACACAGCGUGGCAAACUGGCUGUGGCUAGACUGCC", "note": "[G27C]", "self-cleavage": 0.72}
{"variant": "GGCAGAGCUCAAGACAGCGUGGCAAAGUGGCUGAGGCUAGACUGCC", "note": "[C13G U34A]", "self-cleavage": 0.04}
{"variant": "GGCAGAGCUCAACACAGCGUGGCAAAGUGGCUGUGGCAACACUGCC", "note": "[U38A G40C]", "self-cleavage": 0.09}
{"variant": "GGCAGAGCUCGACACAGCGUGGCAAAGUGGCUGUGGCUAGAUUGCC", "note": "[A11G C42U]", "self-cleavage": 0.01}
{"variant": "GGCAGAGCUUAACACAGCGUGACAAAGUGGCUGUGGCUAGACUGCC", "note": "[C10U G22A]", "self-cleavage": 0.25}
{"variant": "GGCGGAGCUCAACACAGCGUGGCAAAGUGACUGUGGCUAGACUGCC", "note": "[A4G G30A]", "self-cleavage": 1.37}
{"variant": "GGCAGAGCUCAACACAGCGUGGCACAGUGGCUGUGGGUAGACUGCC", "note": "[A25C C37G]", "self-cleavage": 0.06}
{"variant": "GGCAGAGCUCAGCACAGCGUGGCAAAGUGGCUGUGGCUAGACUGCA", "note": "[A12G C46A]", "self-cleavage": 0.31}
{"variant": "GGCAGAGCUCAACACAGCGCGGCAAAGUGGUUGUGGCUAGACUGCC", "note": "[U20C C31U]", "self-cleavage": 0.39}
{"variant": "GGCGGAGCUCAACACAGCGUGGCAAAGUGGCUGUGACUAGACUGCC", "note": "[A4G G36A]", "self-cleavage": 0.54}
{"variant": "GGCAGAGCUCAACACACCGUGGCACAGUGGCUGUGGCUAGACUGCC", "note": "[G17C A25C]", "self-cleavage": 0.51}
{"variant": "AGCAGAGCUCAACACAGCGUGGCAAAGUGGCUGUGGCUAGACUGGC", "note": "[G1A C45G]", "self-cleavage": 0.34}
